Laboratory results published in patent publication US20020045192A1 (ST JUDE CHILDREN S RESEARCH HOSPITAL, published 2002).

T1: His-tagged mArfN37 (N-terminal 37 amino acids of mouse p19Arf with poly-His tag) (mouse)
T1 construct: Captured on the SPR chip by a covalently linked anti-His antibody; Tag placed first here; also called His-mArfN37; His-tagged mArf37
T1 chain: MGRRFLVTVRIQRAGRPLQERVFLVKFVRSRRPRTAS

B1: 325-339 (Hdm2 peptide) (peptide)
peptide: Ac-LRENWLPEDKGKDKG-NH2
notes: also called Hdm2 library peptide, residues 325-339
B2: 260-274 (Hdm2 peptide) (peptide)
peptide: Ac-SLSEEGQELSDEDDE-NH2
notes: also called Hdm2 library peptide, residues 260-274
B3: 310-324 (Hdm2 peptide) (peptide)
peptide: Ac-EMNPPLPSHCNRCWA-NH2
modifications: cysteine pairing not given here
notes: also called Hdm2 library peptide, residues 310-324
B4: 210-224 (Hdm2 peptide) (peptide)
peptide: Ac-SSSSESTGTPSNPDL-NH2
notes: also called Hdm2 library peptide, residues 210-224
B5: 300-314 (Hdm2 peptide) (peptide)
peptide: Ac-ADYWKCTSCNEMNPP-NH2
modifications: cysteine pairing not given here
notes: also called Hdm2 library peptide, residues 300-314
B6: 330-344 (Hdm2 peptide) (peptide)
peptide: Ac-LPEDKGKDKGEISEK-NH2
notes: also called Hdm2 library peptide, residues 330-344
B7: 220-234 (Hdm2 peptide) (peptide)
peptide: Ac-SNPDLDAGVSEHSGD-NH2
notes: also called Hdm2 library peptide, residues 220-234
B8: 280-294 (Hdm2 peptide) (peptide)
peptide: Ac-VYQAGESDTDSFEED-NH2
notes: also called Hdm2 library peptide, residues 280-294
B9: 335-349 (Hdm2 peptide) (peptide)
peptide: Ac-GKDKGEISEKAKLEN-NH2
notes: also called Hdm2 library peptide, residues 335-349
B10: 285-299 (Hdm2 peptide) (peptide)
peptide: Ac-ESDTDSFEEDPEISL-NH2
notes: also called Hdm2 library peptide, residues 285-299
B11: 215-229 (Hdm2 peptide) (peptide)
peptide: Ac-STGTPSNPDLDAGVS-NH2
notes: also called Hdm2 library peptide, residues 215-229
B12: 265-279 (Hdm2 peptide) (peptide)
peptide: Ac-GQELSDEDDEVYQVT-NH2
notes: also called Hdm2 library peptide, residues 265-279
B13: 230-244 (Hdm2 peptide) (peptide)
peptide: Ac-EHSGDWLDQDSVSDQ-NH2
notes: also called Hdm2 library peptide, residues 230-244
B14: 235-249 (Hdm2 peptide) (peptide)
peptide: Ac-WLDQDSVSDQFSVEF-NH2
notes: member of the group m17; also called H1 segment peptide
B15: 295-309 (Hdm2 peptide) (peptide)
peptide: Ac-PEISLADYWKCTSCN-NH2
modifications: cysteine pairing not given here
notes: also called Hdm2 library peptide, residues 295-309
B16: 270-284 (Hdm2 peptide) (peptide)
peptide: Ac-DEDDEVYQVTVYQAG-NH2
notes: also called Hdm2 library peptide, residues 270-284
B17: 245-259 (Hdm2 peptide) (peptide)
peptide: Ac-FSVEFEVESLDSEDY-NH2
notes: as for B14
B18: 240-254 (Hdm2 peptide) (peptide)
peptide: Ac-SVSDQFSVEFEVESL-NH2
notes: member of the group m17; also called Hdm2 library peptide, residues 240-254; H1 segment peptide
B19: 320-334 (Hdm2 peptide) (peptide)
peptide: Ac-NRCWALRENWLPEDK-NH2
notes: also called Hdm2 library peptide, residues 320-334
B20: 106-120 (human Arf peptide) (peptide)
peptide: Ac-GHAGGAAPGRGAAGR-NH2
notes: also called human p14Arf library peptide, residues 106-120
B21: 81-95 (human Arf peptide) (peptide)
peptide: Ac-RRGAQLRRPRHSHPT-NH2
notes: also called human p14Arf library peptide, residues 81-95
B22: 26-40 (human Arf peptide) (peptide)
peptide: Ac-HIPRLTGEWAAPGAP-NH2
notes: also called human p14Arf library peptide, residues 26-40
B23: 101-115 (human Arf peptide) (peptide)
peptide: Ac-PGGLPGHAGGAAPGR-NH2
notes: also called human p14Arf library peptide, residues 101-115
B24: 21-35 (human Arf peptide) (peptide)
peptide: Ac-RVFVVHIPRLTGEWA-NH2
notes: also called human p14Arf library peptide, residues 21-35
B25: 96-110 (human Arf peptide) (peptide)
peptide: Ac-RARRCPGGLPGHAGG-NH2
notes: also called human p14Arf library peptide, residues 96-110
B26: 41-55 (human Arf peptide) (peptide)
peptide: Ac-AAVALVLMLLRSQRL-NH2
notes: also called human p14Arf library peptide, residues 41-55
B27: 66-80 (human Arf peptide) (peptide)
peptide: Ac-HDDGQRPSGGAAAAP-NH2
notes: also called human p14Arf library peptide, residues 66-80
B28: 71-85 (human Arf peptide) (peptide)
peptide: Ac-RPSGGAAAAPRRGAQ-NH2
notes: also called human p14Arf library peptide, residues 71-85
B29: human p14Arf library peptide, residues 6-20 (peptide)
peptide: Ac-LVTLRIRRACGPPRV-NH2
notes: also called second peptide of the human library
B30: 51-65 (human Arf peptide) (peptide)
peptide: Ac-RSQRLGQQPLPRRPG-NH2
notes: also called human p14Arf library peptide, residues 51-65
B31: 31-45 (human Arf peptide) (peptide)
peptide: Ac-TGEWAAPGAPAAVAL-NH2
notes: also called human p14Arf library peptide, residues 31-45
B32: 76-90 (human Arf peptide) (peptide)
peptide: Ac-AAAAPRRGAQLRRPR-NH2
notes: also called human p14Arf library peptide, residues 76-90
B33: human p14Arf library peptide, residues 11-25 (peptide)
peptide: Ac-IRRACGPPRVRVFVV-NH2
notes: also called third peptide of the human library
B34: 116-130 (human Arf peptide) (peptide)
peptide: Ac-GAAGRARCLGPSARG-NH2
notes: also called human p14Arf library peptide, residues 116-130
B35: 46-60 (human Arf peptide) (peptide)
peptide: Ac-VLMLLRSQRLGQQPL-NH2
notes: also called human p14Arf library peptide, residues 46-60
B36: 61-75 (human Arf peptide) (peptide)
peptide: Ac-PRRPGHDDGQRPSGG-NH2
notes: also called human p14Arf library peptide, residues 61-75
B37: 91-105 (human Arf peptide) (peptide)
peptide: Ac-HSHPTRARRCPGGLP-NH2
notes: also called human p14Arf library peptide, residues 91-105
B38: human p14Arf library peptide, residues 1-15 (peptide)
peptide: Ac-MVRRFLVTLRIRRAC-NH2
notes: also called first peptide of the human library
B39: 111-125 (human Arf peptide) (peptide)
peptide: Ac-AAPGRGAAGRARCLG-NH2
notes: also called human p14Arf library peptide, residues 111-125
B40: 56-70 (human Arf peptide) (peptide)
peptide: Ac-GQQPLPRRPGHDDGQ-NH2
notes: also called human p14Arf library peptide, residues 56-70

Molecular target: T1, His-tagged mArfN37 (N-terminal 37 amino …)
Assay: SPR, His-tagged mArfN37 captured by anti-His antibody, peptide injected, signal minus reference cell [c]
Method: (§1) Binding studies were performed using a Biacore 3000 surface plasmon resonance (SPR) instrument (Biacore, Inc.). A Tetra-His™ Antibody (Qiagen, Inc.; Cat. #34670) was covalently attached to a carboxymethylated gold surface (C-1 chip; Biacore, Inc.). The carboxymethyl groups on the surface were activated with N-ethyl-N′-(3-dimethylaminopropyl) carbodiimide (EDC) and N-hydroxysuccinimide (NHS) and the antibody was attached at pH 7.4 in 20 mM sodium phosphate buffer, 150 mM NaCl (PBS). Reactive sites remaining on the surface were blocked by reaction with ethanolamine. The His-tagged ligand was attached to the antibody by injecting a 5-10 μg/ml solution of the ligand in 10 mM HEPES, 150 mM NaCl, pH 7.4 (HBS-N buffer, Biacore) at a flow rate of 10 μL/min through the flow cell. A reference cell was prepared similarly except that no His-tagged ligand was added. Binding was measured by flowing the non-His-tagged analyte through the reference and ligand-containing flow cells in sequence. Prior to injection of ligands, the chip surfaces were equilibrated in HBS-N buffer. Changes in the SPR response due to solvent differences and the injection process were monitored by injection of HBS-N buffer alone. Regeneration of the chip surface to remove bound analyte and ligand was accomplished by two 100 μL injections of 10 mM glycine, pH 2.0 through both flow cells. Data reported is the difference in SPR signal between the flow cell containing analyte and the reference cell. Duplicate injections were made and the SPR response values reported are the average of these two injections.
A similar approach using short synthetic peptides and SPR was used to map the segments of Hdm2 that bind mArfN37 (FIG. 5c). […] The first of these as Arf-binding segment is termed “H1” and the second is termed segment “H2”.

| binding result | Binder |
| --- | --- |
| no binding | B1 |
| no binding | B2 |
| no binding | B3 |
| no binding | B4 |
| binds | Ac-EVESLDSEDYSLSEE-NH2 [250-264 (Hdm2 peptide)] |
| no binding | B5 |
| no binding | B6 |
| no binding | Ac-DSEDYSLSEEGQELS-NH2 [255-269 (Hdm2 peptide)] |
| no binding | B7 |
| no binding | B8 |
| no binding | B9 |
| no binding | B10 |
| binds | Ac-SFEEDPEISLADYWK-NH2 [Hdm2 peptide, residues 290-304 of SEQ ID NO:8] |
| no binding | B11 |
| no binding | B12 |
| no binding | B13 |
| binds | B14 |
| no binding | B15 |
| no binding | Ac-LPSHCNRCWALRENW-NH2 (cysteine pairing not given here) [315-329 (Hdm2 peptide)] |
| binds | B16 |
| binds | B17 |
| binds | B18 |
| no binding | B19 |

Molecular target: T2, His-tagged Hdm2 210-304 (human, UniProt Q00987 210-304)
T2 construct: Captured on the C-1 chip by anti-His antibody for the Arf peptide library SPR; Tag placed first here
T2 sequence (Q00987 210-304): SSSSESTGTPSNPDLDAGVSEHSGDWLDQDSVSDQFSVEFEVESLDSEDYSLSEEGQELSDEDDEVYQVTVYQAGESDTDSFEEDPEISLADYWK
Assay: SPR, His-tagged Hdm2 210-304 captured by anti-His antibody, peptide injected 10 min, signal minus reference cell [b]
Method: as §1, with “Reactive” for “Binding studies were performed using a Biacore 3000 surface plasmon resonance (SPR) instrument (Biacore, Inc.). A Tetra-His™ Antibody (Qiagen, Inc.; Cat. #34670) was covalently attached to a carboxymethylated gold surface (C-1 chip; Biacore, Inc.). The carboxymethyl groups on the surface were activated with N-ethyl-N′-(3-dimethylaminopropyl) carbodiimide (EDC) and N-hydroxysuccinimide (NHS) and the antibody was attached at pH 7.4 in 20 mM sodium phosphate buffer, 150 mM NaCl (PBS). Reactive”
Two libraries of peptides 15 amino acids in length were synthesized based on the sequence of exon 1β of mouse p19^Arf and the entire sequence of human p14^Arf. The sequence for the first peptide in each library corresponded to the first 15 amino acids of the protein sequences. […] This approach yielded two libraries of overlapping peptides spanning mouse p19^Arf residues 1-64 and human p14^Arf residues 1-132. The ability of these peptides to bind Hdm2 fragments was determined using the surface plasmon resonance (SPR) technique with a Biacore 3000 instrument. […] Library peptides were allowed to flow over the Hdm2 surface, or over a control surface lacking an Hdm2 fragment.

| binding result | Binder |
| --- | --- |
| no binding | B20 |
| no binding | B21 |
| no binding | B22 |
| no binding | B23 |
| no binding | B24 |
| no binding | B25 |
| no binding | B26 |
| binds | Ac-LRRPRHSHPTRARRC-NH2 [human p14Arf library peptide, residues 86-100 (contains the NoLS RRPR)] |
| no binding | B27 |
| no binding | B28 |
| binds | B29 |
| no binding | B30 |
| no binding | B31 |
| no binding | B32 |
| binds | B33 |
| no binding | B34 |
| no binding | B35 |
| no binding | B36 |
| no binding | B37 |
| binds | B38 |
| no binding | B39 |
| no binding | B40 |
